Here are results for 15 molecules from patent US20070286858A1 (Pfizer, published 2007).

The assay addresses T1, human RAGE-Fc fusion protein (human, UniProt Q15109 23-344).
T1 construct: also called hRAGE-Fc; huRAGE-Fc; not shown: Fc domain of human IgG
Nature of the assay: competition ELISA on human RAGE-Fc; labelled competitor not named. Background: ELISA stands for enzyme-linked immunosorbent assay.

B1: V2.0 (R40, Y46, I48, A71, K73) / v3.0 DPK24 grafted (antibody, V domains shown)
VH: QVQLVQSGAEVKKPGASVKVSCKASGYTFTTYWMHWVRQRPGQGLYWIGYINPSTGYTEYNQKFKDRVTMTADTSISTAYMELSRLRSDDTAVYYCARWAGYTIDYWGQGTLVTVSS
VL: DIVMTQSPDSLAVSLGERATINCKSTKSLLNSDGFTYLDWYQQKPGQPPKLLIYLVSDRFSGVPDRFSGSGSGTDFTLTISSLQAEDVAVYYCFQSNSLPLTFGGGTKVEIK
notes: XT-H2 construct expressed in COS cells; also called XT-H2 hVH V2.0 + hVL V3.0
In turn, B1 had an ED50 of 8 nM.

B2: V2.1 (R40A) / v3.0 (antibody, V domains shown)
VH: QVQLVQSGAEVKKPGASVKVSCKASGYTFTTYWMHWVRQAPGQGLYWIGYINPSTGYTEYNQKFKDRVTMTADTSISTAYMELSRLRSDDTAVYYCARWAGYTIDYWGQGTLVTVSS
VL: DIVMTQSPDSLAVSLGERATINCKSTKSLLNSDGFTYLDWYQQKPGQPPKLLIYLVSDRFSGVPDRFSGSGSGTDFTLTISSLQAEDVAVYYCFQSNSLPLTFGGGTKVEIK
notes: XT-H2 construct expressed in COS cells; also called XT-H2 hVH V2.1 + hVL V3.0
Regarding B2, the ED50 was 5 nM.

B3: mVH / v2.0 (V2, L4, S48) (antibody, V domains shown)
VH: QVQLQQSGAELAKPGASVKMSCKASGYTFTTYWMHWVKQRPGQGLYWIGYINPSTGYTEYNQKFKDKATLTADKSSSTAYMQLSSLTSEDSAVYYCARWAGYTIDYWGQGTSVTVSS
VL: DVVLTQTPLSLSVTPGQPASISCKSTKSLLNSDGFTYLDWYLQKPGQSPQLLIYLVSDRFSGVPDRFSGSGSGTDFTLKISRVEAEDVGVYYCFQSNSLPLTFGGGTKVEIK
notes: XT-H2 construct expressed in COS cells; also called XT-H2 mVH + hVL V2.0
For B3, the ED50 was 7 nM.

B4: V2.0 (R40, Y46, I48, A71, K73) / v2.0 (V2, L4, S48) (antibody, V domains shown)
VH: QVQLVQSGAEVKKPGASVKVSCKASGYTFTTYWMHWVRQRPGQGLYWIGYINPSTGYTEYNQKFKDRVTMTADTSISTAYMELSRLRSDDTAVYYCARWAGYTIDYWGQGTLVTVSS
VL: DVVLTQTPLSLSVTPGQPASISCKSTKSLLNSDGFTYLDWYLQKPGQSPQLLIYLVSDRFSGVPDRFSGSGSGTDFTLKISRVEAEDVGVYYCFQSNSLPLTFGGGTKVEIK
notes: XT-H2 construct expressed in COS cells; also called XT-H2 hVH V2.0 + hVL V2.0
In turn, B4 came in with an ED50 of 5 nM.

B5: V2.2 (Y46E) / v2.0 (antibody, V domains shown)
VH: QVQLVQSGAEVKKPGASVKVSCKASGYTFTTYWMHWVRQRPGQGLEWIGYINPSTGYTEYNQKFKDRVTMTADTSISTAYMELSRLRSDDTAVYYCARWAGYTIDYWGQGTLVTVSS
VL: DVVLTQTPLSLSVTPGQPASISCKSTKSLLNSDGFTYLDWYLQKPGQSPQLLIYLVSDRFSGVPDRFSGSGSGTDFTLKISRVEAEDVGVYYCFQSNSLPLTFGGGTKVEIK
notes: XT-H2 construct expressed in COS cells; also called XT-H2 hVH V2.2 + hVL V2.0
B5 showed an ED50 of 4 nM.

B6: V2.1 (R40A) / v2.0 (antibody, V domains shown)
VH: QVQLVQSGAEVKKPGASVKVSCKASGYTFTTYWMHWVRQAPGQGLYWIGYINPSTGYTEYNQKFKDRVTMTADTSISTAYMELSRLRSDDTAVYYCARWAGYTIDYWGQGTLVTVSS
VL: DVVLTQTPLSLSVTPGQPASISCKSTKSLLNSDGFTYLDWYLQKPGQSPQLLIYLVSDRFSGVPDRFSGSGSGTDFTLKISRVEAEDVGVYYCFQSNSLPLTFGGGTKVEIK
notes: XT-H2 construct expressed in COS cells; also called XT-H2 hVH V2.1 + hVL V2.0
In the case of B6, the ED50 was found to be 4 nM.

B7: V2.3 (I48M) / v2.1 (antibody, V domains shown)
VH: QVQLVQSGAEVKKPGASVKVSCKASGYTFTTYWMHWVRQRPGQGLYWMGYINPSTGYTEYNQKFKDRVTMTADTSISTAYMELSRLRSDDTAVYYCARWAGYTIDYWGQGTLVTVSS
VL: DIVMTQTPLSLSVTPGQPASISCKSTKSLLNSDGFTYLDWYLQKPGQSPQLLIYLVSDRFSGVPDRFSGSGSGTDFTLKISRVEAEDVGVYYCFQSNSLPLTFGGGTKVEIK
notes: XT-H2 construct expressed in COS cells; also called XT-H2 hVH V2.3 + hVL V2.1
Molecule B7 registered an ED50 of 5 nM.

B8: V2.1 (R40A) / mVL (antibody, V domains shown)
VH: QVQLVQSGAEVKKPGASVKVSCKASGYTFTTYWMHWVRQAPGQGLYWIGYINPSTGYTEYNQKFKDRVTMTADTSISTAYMELSRLRSDDTAVYYCARWAGYTIDYWGQGTLVTVSS
VL: DVVLTQTPLSLPVNIGDQASISCKSTKSLLNSDGFTYLDWYLQKPGQSPQLLIYLVSDRFSGVPDRFSGSGSGTDFTLTISRVEAEDLGVYYCFQSNSLPLTFGSGTKLEIK
notes: XT-H2 construct expressed in COS cells; also called XT-H2 hVH V2.1 + mVL
For the molecule B8, the ED50 was determined as 8 nM.

B9: V2.3 (I48M) / mVL (antibody, V domains shown)
VH: QVQLVQSGAEVKKPGASVKVSCKASGYTFTTYWMHWVRQRPGQGLYWMGYINPSTGYTEYNQKFKDRVTMTADTSISTAYMELSRLRSDDTAVYYCARWAGYTIDYWGQGTLVTVSS
VL: DVVLTQTPLSLPVNIGDQASISCKSTKSLLNSDGFTYLDWYLQKPGQSPQLLIYLVSDRFSGVPDRFSGSGSGTDFTLTISRVEAEDLGVYYCFQSNSLPLTFGSGTKLEIK
notes: XT-H2 construct expressed in COS cells; also called XT-H2 hVH V2.3 + mVL
As for B9, the ED50 worked out at 10 nM.

B10: V2.2 (Y46E) / v2.1 (antibody, V domains shown)
VH: QVQLVQSGAEVKKPGASVKVSCKASGYTFTTYWMHWVRQRPGQGLEWIGYINPSTGYTEYNQKFKDRVTMTADTSISTAYMELSRLRSDDTAVYYCARWAGYTIDYWGQGTLVTVSS
VL: DIVMTQTPLSLSVTPGQPASISCKSTKSLLNSDGFTYLDWYLQKPGQSPQLLIYLVSDRFSGVPDRFSGSGSGTDFTLKISRVEAEDVGVYYCFQSNSLPLTFGGGTKVEIK
notes: XT-H2 construct expressed in COS cells; also called XT-H2 hVH V2.2 + hVL V2.1
B10 came in with an ED50 of 5 nM.

B11: V2.2 (Y46E) / mVL (antibody, V domains shown)
VH: QVQLVQSGAEVKKPGASVKVSCKASGYTFTTYWMHWVRQRPGQGLEWIGYINPSTGYTEYNQKFKDRVTMTADTSISTAYMELSRLRSDDTAVYYCARWAGYTIDYWGQGTLVTVSS
VL: DVVLTQTPLSLPVNIGDQASISCKSTKSLLNSDGFTYLDWYLQKPGQSPQLLIYLVSDRFSGVPDRFSGSGSGTDFTLTISRVEAEDLGVYYCFQSNSLPLTFGSGTKLEIK
notes: XT-H2 construct expressed in COS cells; also called XT-H2 hVH V2.2 + mVL
For B11, the ED50 worked out at 6 nM.

B12: V2.0 (R40, Y46, I48, A71, K73) / v2.1 (V2I, L4M) (antibody, V domains shown)
VH: QVQLVQSGAEVKKPGASVKVSCKASGYTFTTYWMHWVRQRPGQGLYWIGYINPSTGYTEYNQKFKDRVTMTADTSISTAYMELSRLRSDDTAVYYCARWAGYTIDYWGQGTLVTVSS
VL: DIVMTQTPLSLSVTPGQPASISCKSTKSLLNSDGFTYLDWYLQKPGQSPQLLIYLVSDRFSGVPDRFSGSGSGTDFTLKISRVEAEDVGVYYCFQSNSLPLTFGGGTKVEIK
notes: XT-H2 construct expressed in COS cells; also called XT-H2 hVH V2.0 + hVL V2.1
Regarding B12, the ED50 is 5 nM.

B13: V2.0 (R40, Y46, I48, A71, K73) / mVL (antibody, V domains shown)
VH: QVQLVQSGAEVKKPGASVKVSCKASGYTFTTYWMHWVRQRPGQGLYWIGYINPSTGYTEYNQKFKDRVTMTADTSISTAYMELSRLRSDDTAVYYCARWAGYTIDYWGQGTLVTVSS
VL: DVVLTQTPLSLPVNIGDQASISCKSTKSLLNSDGFTYLDWYLQKPGQSPQLLIYLVSDRFSGVPDRFSGSGSGTDFTLTISRVEAEDLGVYYCFQSNSLPLTFGSGTKLEIK
notes: XT-H2 construct expressed in COS cells; also called XT-H2 hVH V2.0 + mVL
B13: the ED50 was found to be 8 nM.

B14: V2.3 (I48M) / v2.0 (antibody, V domains shown)
VH: QVQLVQSGAEVKKPGASVKVSCKASGYTFTTYWMHWVRQRPGQGLYWMGYINPSTGYTEYNQKFKDRVTMTADTSISTAYMELSRLRSDDTAVYYCARWAGYTIDYWGQGTLVTVSS
VL: DVVLTQTPLSLSVTPGQPASISCKSTKSLLNSDGFTYLDWYLQKPGQSPQLLIYLVSDRFSGVPDRFSGSGSGTDFTLKISRVEAEDVGVYYCFQSNSLPLTFGGGTKVEIK
notes: XT-H2 construct expressed in COS cells; also called XT-H2 hVH V2.3 + hVL V2.0
As to B14, the ED50 was 4.5 nM.

B15: V2.1 (R40A) / v2.1 (antibody, V domains shown)
VH: QVQLVQSGAEVKKPGASVKVSCKASGYTFTTYWMHWVRQAPGQGLYWIGYINPSTGYTEYNQKFKDRVTMTADTSISTAYMELSRLRSDDTAVYYCARWAGYTIDYWGQGTLVTVSS
VL: DIVMTQTPLSLSVTPGQPASISCKSTKSLLNSDGFTYLDWYLQKPGQSPQLLIYLVSDRFSGVPDRFSGSGSGTDFTLKISRVEAEDVGVYYCFQSNSLPLTFGGGTKVEIK
notes: XT-H2 construct expressed in COS cells; also called XT-H2 hVH V2.1 + hVL V2.1
B15 showed an ED50 of 7.5 nM.
